Measurements taken from patent US20250250357A1 (NANJING ZAIMING PHARMACEUTICAL, published 2025).

B1: S009-F7.26.15 (antibody, human IgG1, kappa, V domains shown)
VH: DVQLQESGPGLVKPSQTVFLTCTVTGISITTGNYRWSWIRQFPGNKLEWIGYIYYTGFITYNPSLTSRTTITRDTPKNQFFLEMKSLTAEDTATYYCARDDYDYDVFAYWGQGTLVTVSA
VL: DIQMTQSPASLSASVGETVTITCRASGNIHNYLAWYHQKQGKSPQFLVYKAKTLADGVPSRFSGSGSGTQYSLKINRLQPEDFGSYYCQHFLSIPLTFGAGTKLELKR
notes: human-murine chimeric antibody, human IgG1/kappa constant regions
B2: S009-F7.53.2 (antibody, human IgG1, kappa, V domains shown)
VH: EVQLQQSGPELVKPGASVKIPCKTSGYTFTDYNMDWVKQSHGKSLEWIGDINPNTDGAIYNQKFQNKATLTVDKSSSTAYMELRSLTSEDTAVYYCTRRKLGRKFFDYWGQGTTLTVSS
VL: QIVLTQSPAIMSASPGEQVTMTCSASSSVGYMNWYQQKPGSSPRLLIYDTSNLASGVPVHFSGSGSGTSYSLTISRMEAAFAATYYCQQWYVYPYTFGGGTKLEIKR
notes: as for B1
B3: S009-F7.65.13 (antibody, human IgG1, kappa, V domains shown)
VH: EVQLQQSGPELVKPGTSVKILCKASGDTFTAYNMDWVKQRHGQSLEWIGDINPNTDSTIYNQKFEGKAILTVDKSSSTAYMELRSLTSEDTAVYYCARRKLGRGYFDYWGQGTTLTVSS
VL: QIVLTQSPAIMSASPGEKVTMTCSVNLSVRYIYWYQQKPGSSPRLLIHDTSNLASGVPVRFSGSGSGTSYSLTISRMEAEDAATYYCQQWSSFPYTFGGGTKLEIKR
notes: as for B1
B4: S009-F7.6.17 (antibody, human IgG1, kappa, V domains shown)
VH: QVQLQQSGAELARPGASVKMSCKASGYTFTTYTMHWVKQRPGQGLEWIGYISPTGDFTKYNQKFKDKATLTTDKSSNTAFMQLSSLTSEDSAVYYCARWNGTVWFAYWGQGTLVTVSA
VL: DIVMTQSQKFMSTSVGDRVTVTCKASQALGTNVAWYQQKPGQSPKVLIYSASYRYSGVPYRFAGGGSGTDFTLTITNVQSEDLAEYFCQQYNNYPLTFGAGTKLELKR
notes: as for B1
B5: S009-F7.23.19 (antibody, human IgG1, kappa, V domains shown)
VH: EVKLVESGGGLVQPGGSLSLSCAASGFTFTDYYMSWVRQPPGKALEWLGFIRSKANAYTTEYSASVKGRFTISRDNSQSILYLQMNDLRAEDSATYYCARYYYYGSGYVWYFDVWGTGTTVTVSS
VL: DIVMTQSQKFMSTSVGDRVSVTCKASQSVGTNVAWYQQKPGQFPKALIYSASYRYSGVPDRFTGSGSGTDFTLTIINVQSEDLAEYFCQQYNSYPLTFGAGTKLELKR
notes: as for B1
B6: S009-F7.41.18 (antibody, human IgG1, kappa, V domains shown)
VH: QVQLQQPGTELVKPGASVKLSCKASDYTFTSYWMHWVKQRPGQGLEWIGSINPSNGDTYYNEKFKNKATLTVDKSSSTAYMQLSSLTSDDSAVYYCARGWYFDVWGTGTTVTVSS
VL: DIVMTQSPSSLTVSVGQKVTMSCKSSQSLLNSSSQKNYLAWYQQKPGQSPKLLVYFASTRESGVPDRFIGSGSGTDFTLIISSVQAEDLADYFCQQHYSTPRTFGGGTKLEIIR
notes: as for B1
B7: S009-F7.11.11 (antibody, human IgG1, kappa, V domains shown)
VH: EVQLQQSGPELVKPGASVKIPCKASGYTITDYNMDWVKQSRGKSLEWIGDVFPYNGDSIYNQKFEGRATLTVDKYSSTAYMELRGLTSEDTAVYFCARRKTGTGYFDVWGTGTTVTVSS
VL: QLVLTQSPAIMSASPGEKVTLTCSASSSVSSTYLSWYLQKPGSSPKLWIYSTSNLASGVPARFSGSGSGTSYSLTISSMEAEDAASYFCHQWSSYPYTFGGGTKLEIKR
notes: as for B1
B8: S009-F7.61.21 (antibody, human IgG1, kappa, V domains shown)
VH: DVQLQQSGPELVEPGASVRIPCKAAGHTFTDYNVDWVKQSHGQSLEWIGDVNPNTDGAIYNQKFEGKATLTVDTSSSTAYMELRSLTSEDTAVYFCARRRLGQGGFDSWGQGTTLTVSS
VL: QVVLTQSPAIMSASPGEKVTLTCGASSSLISKYLYWYQQKPGSSPKLWIYSTSNLASGVPARFSGSGSGTSYSLTISSMEAEDAASYFCHQWSSYPYTFGGGTKVEIKR
notes: as for B1
B9: S009-F7.12.13 (antibody, human IgG1, kappa, V domains shown)
VH: EVQLQQSGPELVKPGASVKIPCKASGYTFTDYNMDWVKQSHGKGLEWIGDINPNTDDTIYNQKFNGKATLTVDKSSSTAYMELRSLTSEDTAVYYCSRRLIGTGYFDVWGTGTTVTVSS
VL: QIVLTQSPAIMSASPGEKVTLTCSASSSVISTYLCWYRQKPGSSPELWIYSTSNLASGVPARFSGSGSGTSYSLTISSMEAEDAASYFCHQWSNYPYTFGGGTKLGMKR
notes: as for B1
B10: S009-F7.44.20 (antibody, human IgG1, kappa, V domains shown)
VH: EVQLQQSGPELVKPGASVKIPCKASGYTFTDYNMDWVKQSHGKSLEWIGDINPSTGGTIYNQKFNGKATLTEDKSASTVYMEFRSLTSDDTAVYYCARRRIGTGYFDVWGTGTTVTVSS
VL: QIVLTQSPALMSASPGEKVTLTCSASSSVISSYLSWYQQKPGSSPKLLIYRTSNLASGVPARFSGSGSGTSYSLTISSMEAEDAASYFCHQWSSFPYTFGGGTKLEIKR
notes: as for B1
B11: S009-F7.21.16 (antibody, human IgG1, kappa, V domains shown)
VH: QVQLQQPGTELVKPGASVKLSCKASGYTFTTFWMHWVKQRPGQGLEWIGGVNPTNGGTNYNEKFRTKATLTVDKSSTTADMQLSSLTSEDSAVYYCAPHYISSRPGFAYWGQGTLVTVSG
VL: DIVMTQSQKFMSTSGGDRVSVTCKASQNVGTNVAWYQQKPGQSPKALIYSASYRYSGVPDRFTGSGSGTDFILTISNVQSEDLAEYFCQQYNSYPLTFGGGTKLEIKR
notes: as for B1
B12: S009-F7.48.1 (antibody, human IgG1, kappa, V domains shown)
VH: QVQLQQPGTELVKPGASVKLSCKASGYTFTSYWMHWVKQRPGQGLEWIGNINPSNGGTNNNENFKSKATLTVDTSSSTAYMQLSSLTSEDSAVYYCVRNGYHGYWYFDVWGTGTTVTVSS
VL: DIVMTQSQKFMSTSVGDRVSVTCKASQNVGTNVAWYQQQPGQSPKALIYSASYRYSGVPDRFTGSVSGTDFTLTISNVQSEDLAEYFCQQYNSYPLTFGGGTKLEIKR
notes: as for B1
B13: S009-F7.25.19 (antibody, human IgG1, kappa, V domains shown)
VH: QVQLQQPGTELVKPGASVKLSCKASGYTFTSYWMHWVKQRPGQGLEWIGNIIPSNGGTKYNEKFKSKATLTVDKSSSTAYMQLSSLTSEDSAVYYCSPHYYGGSPGFAYWGQGTLITVSA
VL: DIVMTQSQKFMSTSVGDRVSVICKASQNVGTNVAWYQQKPGQSPKALIYSASYRYSGVPDRFTGSGSGTDFTLTISNVQSEDLAEYFCQQYNSYPLTFGGGTKLEIKR
notes: as for B1
B14: S009-F7.30.5 (antibody, human IgG1, kappa, V domains shown)
VH: QVQLQQPKTELVKPGASVKLSCKASGYIFTTYWMHWVKQRPGQGLEWIGNVNPSNGGTMYNEKFERRATLTVDKSSSTADMQLSSLTSEDSAVYYCVPHYIGSRPGFAYWGQGTLVTVSG
VL: DIVMTQSQKFMSTSVGDRVSVTCKASQNVGTNVAWYQHKPGQSPKALLYSASYRYSGVPDRFTGSGSGTDFTLTITNVQSEDLAEYFCQQYNSYPLTFGGGTKLEIKR
notes: as for B1
B15: S009-F7.33.24 (antibody, human IgG1, kappa, V domains shown)
VH: QVQLQQPGTELVKPGASVKLSCKASGYTFTSYWMHWVKQRPGQGLEWIGNVNPSNGGSNYNEKFKNKATLTVDKSSSTADMQLNSLTSEDSAVYYCAPHYIGSRPGFAYWGQGTLVTVSG
VL: DIVMTQSQKFMSTSVGDRVSVTCKASQNVGTNIAWYQQKPGQSPKALIYSASYRYSGVPDRFTGSGSGTDFTLTITNVQSEDLAEYFCQQYNSYPLTFGGGTKVEIKR
notes: as for B1

These binders were tested against T1, human MSLN-FL-his protein (human, UniProt Q13421 296-580) (assay: SPR (Biacore), antibody captured on Protein A chip;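 note: flow cell at 25 °C, antigen injected for 240 s at five concentrations from 200 nM downward, dissociation followed up to 600 s, double-referenced, fitted with Langmuir 1:1 model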).
T1 construct: made in HEK293E cells, purified on nickel column; also called hMSLN-FL-his; human MSLN full-length protein; not shown: His tag
T1 sequence (Q13421 other isoform, or with tags, fused parts or gaps): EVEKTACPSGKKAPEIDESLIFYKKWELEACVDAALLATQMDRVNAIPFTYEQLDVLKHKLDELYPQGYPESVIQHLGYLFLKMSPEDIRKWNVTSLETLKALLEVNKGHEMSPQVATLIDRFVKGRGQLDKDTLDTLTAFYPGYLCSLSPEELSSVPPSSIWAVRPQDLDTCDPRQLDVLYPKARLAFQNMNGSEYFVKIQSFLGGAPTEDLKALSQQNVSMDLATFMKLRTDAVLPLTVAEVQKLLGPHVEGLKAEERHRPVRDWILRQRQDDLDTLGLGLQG

In order of rising Kd:
1. B7  0.181 nM
2. B1  0.2 nM
3. B6  0.418 nM
4. B4  1.18 nM
5. B3  1.44 nM
6. B11  1.69 nM
7. B13  2.71 nM
8. B10  3.01 nM
9. B2  3.27 nM
10. B14  3.83 nM
11. B8  5.03 nM
12. B15  10.2 nM
13. B5  13.6 nM
14. B12  17.8 nM
15. B9  40.5 nM

In order of rising koff:
1. B6  8.35e-05 s⁻¹
2. B7  0.00024 s⁻¹
3. B4  0.000389 s⁻¹
4. B12  0.000413 s⁻¹
5. B3  0.000538 s⁻¹
6. B2  0.00065 s⁻¹
7. B14  0.000705 s⁻¹
8. B11  0.000773 s⁻¹
9. B1  0.000975 s⁻¹
10. B10  0.00106 s⁻¹
11. B13  0.00113 s⁻¹
12. B8  0.00154 s⁻¹
13. B15  0.00506 s⁻¹
14. B5  0.00695 s⁻¹
15. B9  0.00892 s⁻¹

In order of falling kon:
1. B1  4.88e+06 M⁻¹ s⁻¹
2. B7  1.33e+06 M⁻¹ s⁻¹
3. B5  511000 M⁻¹ s⁻¹
4. B15  498000 M⁻¹ s⁻¹
5. B11  458000 M⁻¹ s⁻¹
6. B13  417000 M⁻¹ s⁻¹
7. B3  374000 M⁻¹ s⁻¹
8. B10  351000 M⁻¹ s⁻¹
9. B4  329000 M⁻¹ s⁻¹
10. B8  306000 M⁻¹ s⁻¹
11. B9  220000 M⁻¹ s⁻¹
12. B6  200000 M⁻¹ s⁻¹
13. B2  199000 M⁻¹ s⁻¹
14. B14  184000 M⁻¹ s⁻¹
15. B12  23100 M⁻¹ s⁻¹
